Laboratory results taken from US20040157214A1.

Biological target: bovine thyroglobulin (bovine) (UniProt P01267)
Assay: phage ELISA, 200 ug/ml thyroglobulin

Sequence of bovine thyroglobulin (bovine) (P01267 20-2769 limits assumed): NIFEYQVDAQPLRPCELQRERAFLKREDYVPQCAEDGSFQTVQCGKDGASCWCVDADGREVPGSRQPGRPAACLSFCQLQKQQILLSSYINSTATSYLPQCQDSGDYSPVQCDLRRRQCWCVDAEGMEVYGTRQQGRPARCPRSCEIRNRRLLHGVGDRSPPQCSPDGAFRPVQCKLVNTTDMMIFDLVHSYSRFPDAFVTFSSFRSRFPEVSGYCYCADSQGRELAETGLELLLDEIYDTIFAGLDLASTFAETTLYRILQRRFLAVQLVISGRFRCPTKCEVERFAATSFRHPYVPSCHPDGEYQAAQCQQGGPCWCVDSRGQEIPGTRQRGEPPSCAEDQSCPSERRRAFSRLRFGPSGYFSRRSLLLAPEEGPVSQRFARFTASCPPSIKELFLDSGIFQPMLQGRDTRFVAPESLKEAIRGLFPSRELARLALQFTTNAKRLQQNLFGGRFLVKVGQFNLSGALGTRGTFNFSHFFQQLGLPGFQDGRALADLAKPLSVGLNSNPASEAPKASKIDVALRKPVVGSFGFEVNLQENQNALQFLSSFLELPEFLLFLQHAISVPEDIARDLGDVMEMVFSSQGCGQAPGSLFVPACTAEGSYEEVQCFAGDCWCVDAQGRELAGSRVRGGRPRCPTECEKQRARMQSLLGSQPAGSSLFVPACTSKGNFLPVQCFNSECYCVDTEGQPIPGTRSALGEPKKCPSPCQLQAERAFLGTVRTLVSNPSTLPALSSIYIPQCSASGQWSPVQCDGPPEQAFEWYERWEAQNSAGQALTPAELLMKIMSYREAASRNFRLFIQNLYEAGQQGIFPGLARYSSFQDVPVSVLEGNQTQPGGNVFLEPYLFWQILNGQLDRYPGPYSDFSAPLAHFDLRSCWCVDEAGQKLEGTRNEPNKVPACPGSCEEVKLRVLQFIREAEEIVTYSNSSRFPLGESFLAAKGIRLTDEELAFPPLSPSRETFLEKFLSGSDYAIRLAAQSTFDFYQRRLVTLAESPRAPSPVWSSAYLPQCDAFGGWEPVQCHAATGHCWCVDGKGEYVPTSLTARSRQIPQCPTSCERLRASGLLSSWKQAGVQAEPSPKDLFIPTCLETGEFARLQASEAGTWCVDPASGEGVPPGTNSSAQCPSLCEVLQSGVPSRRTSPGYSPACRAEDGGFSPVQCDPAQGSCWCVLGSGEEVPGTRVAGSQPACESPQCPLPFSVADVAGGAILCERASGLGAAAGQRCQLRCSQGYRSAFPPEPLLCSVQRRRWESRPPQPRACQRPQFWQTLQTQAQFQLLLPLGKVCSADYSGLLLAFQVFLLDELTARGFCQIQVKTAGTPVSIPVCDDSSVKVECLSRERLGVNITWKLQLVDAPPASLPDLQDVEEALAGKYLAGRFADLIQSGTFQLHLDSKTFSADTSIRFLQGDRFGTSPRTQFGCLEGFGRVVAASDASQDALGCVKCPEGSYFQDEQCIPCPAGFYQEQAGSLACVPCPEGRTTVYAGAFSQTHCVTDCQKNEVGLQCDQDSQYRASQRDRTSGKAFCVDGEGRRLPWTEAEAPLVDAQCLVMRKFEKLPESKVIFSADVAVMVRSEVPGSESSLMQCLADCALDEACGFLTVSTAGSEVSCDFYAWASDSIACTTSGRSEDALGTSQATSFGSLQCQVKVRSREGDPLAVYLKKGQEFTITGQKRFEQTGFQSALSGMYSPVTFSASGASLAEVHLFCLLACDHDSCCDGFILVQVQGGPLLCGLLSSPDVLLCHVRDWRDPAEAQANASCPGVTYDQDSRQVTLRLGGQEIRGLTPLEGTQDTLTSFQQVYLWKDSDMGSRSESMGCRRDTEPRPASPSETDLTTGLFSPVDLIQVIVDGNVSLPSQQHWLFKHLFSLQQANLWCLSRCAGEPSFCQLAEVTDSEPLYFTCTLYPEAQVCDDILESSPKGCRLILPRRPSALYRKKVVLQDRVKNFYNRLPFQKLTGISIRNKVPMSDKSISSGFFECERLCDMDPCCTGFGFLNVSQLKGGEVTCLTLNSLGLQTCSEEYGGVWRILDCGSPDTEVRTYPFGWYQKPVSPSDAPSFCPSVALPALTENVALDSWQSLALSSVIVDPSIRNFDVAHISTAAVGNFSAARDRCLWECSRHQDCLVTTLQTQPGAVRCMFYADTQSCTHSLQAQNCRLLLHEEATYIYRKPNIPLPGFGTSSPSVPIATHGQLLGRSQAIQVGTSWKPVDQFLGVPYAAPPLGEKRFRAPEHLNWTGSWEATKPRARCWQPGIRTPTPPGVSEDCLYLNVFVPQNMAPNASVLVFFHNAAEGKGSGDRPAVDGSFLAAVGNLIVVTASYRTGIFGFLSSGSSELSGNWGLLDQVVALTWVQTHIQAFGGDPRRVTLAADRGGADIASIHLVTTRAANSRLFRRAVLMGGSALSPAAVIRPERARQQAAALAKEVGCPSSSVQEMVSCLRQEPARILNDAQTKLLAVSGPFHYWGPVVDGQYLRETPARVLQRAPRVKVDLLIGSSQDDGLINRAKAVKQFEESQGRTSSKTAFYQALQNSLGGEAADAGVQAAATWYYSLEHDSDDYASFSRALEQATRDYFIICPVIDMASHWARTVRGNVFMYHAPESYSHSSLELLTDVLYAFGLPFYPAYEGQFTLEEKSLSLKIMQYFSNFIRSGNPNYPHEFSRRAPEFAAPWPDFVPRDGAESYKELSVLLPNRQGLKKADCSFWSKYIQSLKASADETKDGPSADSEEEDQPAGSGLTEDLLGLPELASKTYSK
Sequence of pCAT-3 non-recombinant vector phagemid (P03661 19-424): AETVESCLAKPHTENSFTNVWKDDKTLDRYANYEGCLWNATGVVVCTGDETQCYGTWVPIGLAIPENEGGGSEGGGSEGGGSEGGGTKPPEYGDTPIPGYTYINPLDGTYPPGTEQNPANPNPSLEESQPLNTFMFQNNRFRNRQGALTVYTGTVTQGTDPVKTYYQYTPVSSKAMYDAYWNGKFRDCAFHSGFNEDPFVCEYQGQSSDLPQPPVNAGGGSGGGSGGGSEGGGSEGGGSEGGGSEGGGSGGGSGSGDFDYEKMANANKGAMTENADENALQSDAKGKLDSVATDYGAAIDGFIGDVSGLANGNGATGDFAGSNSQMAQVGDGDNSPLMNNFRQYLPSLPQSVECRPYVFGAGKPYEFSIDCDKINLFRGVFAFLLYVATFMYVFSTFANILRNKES

“pCAT-3 non-recombinant vector phagemid (from UniProt P03661 19-424)” showed an ELISA O.D. of 0.07 O.D.
